Experiment [1] deals with T1, full-length recombinant opticin (bovine (stated in Example 6 only; not …, UniProt P58874 20-321).
T1 construct: mature; also called recombinant bovine opticin; class III SLRP opticin
T1 sequence (looked up): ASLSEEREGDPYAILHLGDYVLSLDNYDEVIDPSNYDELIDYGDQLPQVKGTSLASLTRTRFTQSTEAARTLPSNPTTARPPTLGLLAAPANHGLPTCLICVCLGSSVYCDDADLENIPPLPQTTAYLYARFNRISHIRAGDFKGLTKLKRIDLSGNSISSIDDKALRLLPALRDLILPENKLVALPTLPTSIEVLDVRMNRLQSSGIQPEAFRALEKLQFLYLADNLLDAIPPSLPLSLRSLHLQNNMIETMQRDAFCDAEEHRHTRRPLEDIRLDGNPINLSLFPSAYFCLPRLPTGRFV
Nature of the experiment: solid-phase binding assay, receptor coated at 2 µg/ml, opticin titrated, detected with opticin-specific antibody; apparent Kd.

In experiment [2] the target is vascular endothelial growth factor (VEGF), isoform not stated. The experiment can be described thus: cell-based or functional assay.
In experiment [3] the target is basic fibroblast growth factor (FGF-2). The experiment can be described thus: cell-based or functional assay.
Experiment [4] deals with VEGF164. The experiment can be described thus: solid-phase binding assay, growth factor coated at 2 µg/ml, opticin titrated, detected with opticin-specific antibody; apparent Kd.
In experiment [5] the target is basic fibroblast growth factor (FGF-2). Described as above.

These results are taken from patent US20090130192A1 (UNIVERSITY OF MANCHESTER, published 2009).

Sequence of basic fibroblast growth factor (FGF-2) (P09038 143-288): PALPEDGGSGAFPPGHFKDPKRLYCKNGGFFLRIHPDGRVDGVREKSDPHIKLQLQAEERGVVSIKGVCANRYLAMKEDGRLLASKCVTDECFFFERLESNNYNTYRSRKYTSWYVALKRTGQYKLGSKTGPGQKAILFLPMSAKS

B1: VEGF-R1, soluble extracellular domain (receptor)
chain: SKLKDPELSLKGTQHIMQAGQTLHLQCRGEAAHKWSLPEMVSKESERLSITKSACGRNGKQFCSTLTLNTAQANHTGFYSCKYLAVPTSKKKETESAIYIFISDTGRPFVEMYSEIPEIIHMTEGRELVIPCRVTSPNITVTLKKFPLDTLIPDGKRIIWDSRKGFIISNATYKEIGLLTCEATVNGHLYKTNYLTHRQTNTIIDVQISTPRPVKLLRGHTLVLNCTATTPLNTRVQMTWSYPDEKNKRASVRRRIDQSNSHANIFYSVLTIDKMQNKDKGLYTCRVRSGPSFKSVNTSVHIYDKAFITVKHRKQQVLETVAGKRSYRLSMKVKAFPSPEVVWLKDGLPATEKSARYLTRGYSLIIKDVTEEDAGNYTILLSIKQSNVFKNLTATLIVNVKPQIYEKAVSSFPDPALYPLGSRQILTCTAYGIPQPTIKWFWHPCNHNHSEARCDFCSNNEESFILDADSNMGNRIESITQRMAIIEGKNKMASTLVVADSRISGIYICIASNKVGTVGRNISFYITDVPNGFHVNLEKMPTEGEDLKLSCTVNKFLYRDVTWILLRTVNNRTMHYSISKQKMAITKEHSITLNLTIMNVSLQDSGTYACRARNVYTGEEILQKKEITIRDQEAPYLLRNLSDHTVAISSSTTLDCHANGVPEPQITWFKNNHKIQQEPGIILGPGSSTLFIERVTEEDEGVYHCKATNQKGSVESSAYLTVQGTSDKSNLE
In the case of B1, the Kd in experiment [1] was 21 nM.

B2: full-length recombinant opticin (protein, UniProt P58874 20-321, looked up)
chain: T1 sequence (looked up)
Turning to B2, in experiment [2], the inhibition of VEGF induced BAEC proliferation is over 90%; the reduction of VEGF-induced BAEC migration, 10 µg/ml opticin was found to be 53%; the reduction of VEGF-induced BAEC sprouting was 70%. In experiment [3], the inhibition of FGF-2 induced BAEC proliferation is over 95%; the reduction of FGF-2-induced BAEC migration, 10 µg/ml opticin came to 86%; the reduction of FGF-2-induced BAEC sprouting turned out to be 73%. Also, the Kd in experiment [4] came to 42 nM. The Kd in experiment [5] was determined as 34 nM.
